Measurements published in patent US20240043560A1 (Regeneron, published 2024).
Blank lines part the entries; values can stand above or below the binder they belong to.

Assays:
[1] = biological target: full-length human CD28 (hCD28, amino acids M1 to S220, accession #P10747) on engineered reporter T-cells (human, UniProt P10747 19-220); assay: cell-based or functional assay
[2] = biological target: T1, CD28 on the surface of Human T cells (human, UniProt P10747 19-220); assay: flow cytometry, human CD8+ T cells; CD8+ T cells
T1 construct: whole, on cells; also called CD28 on T cells; all T cells

[3] = biological target: T2, PSMA on the surface of cell lines expressing PSMA (C4-2, 22RV1) (human, UniProt Q04609 1-750); assay: flow cytometry, C4-2 cells expressing PSMA
T2 construct: whole, on cells; also called C4-2 cells; 22RV1 cells
T2 sequence (Q04609 whole entry): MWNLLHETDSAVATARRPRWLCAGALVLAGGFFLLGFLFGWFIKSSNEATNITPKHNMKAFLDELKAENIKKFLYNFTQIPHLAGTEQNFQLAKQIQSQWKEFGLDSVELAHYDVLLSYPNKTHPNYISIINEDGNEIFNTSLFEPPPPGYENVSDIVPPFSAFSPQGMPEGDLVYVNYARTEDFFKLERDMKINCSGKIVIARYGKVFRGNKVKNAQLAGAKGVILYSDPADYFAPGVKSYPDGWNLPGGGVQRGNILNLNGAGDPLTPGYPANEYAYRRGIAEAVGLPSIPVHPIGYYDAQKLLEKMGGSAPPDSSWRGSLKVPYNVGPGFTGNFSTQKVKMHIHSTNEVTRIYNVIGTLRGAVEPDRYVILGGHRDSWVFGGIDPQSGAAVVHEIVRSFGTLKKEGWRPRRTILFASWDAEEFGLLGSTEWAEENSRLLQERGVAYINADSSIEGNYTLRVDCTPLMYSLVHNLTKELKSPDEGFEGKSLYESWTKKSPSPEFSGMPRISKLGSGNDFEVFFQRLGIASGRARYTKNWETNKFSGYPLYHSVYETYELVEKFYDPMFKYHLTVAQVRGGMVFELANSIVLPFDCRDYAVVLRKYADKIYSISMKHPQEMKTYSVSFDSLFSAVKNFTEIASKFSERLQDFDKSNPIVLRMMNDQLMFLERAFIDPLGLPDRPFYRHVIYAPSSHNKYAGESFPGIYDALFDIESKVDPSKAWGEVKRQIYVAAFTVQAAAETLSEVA

[4] = biological target: T1, CD28 on the surface of Human T cells; assay: flow cytometry, human CD4+ T cells; CD4+ T cells
[5] = biological target: T2, PSMA on the surface of cell lines …; assay: flow cytometry, 22RV1 cells expressing PSMA
[6] = biological target: T3, hCD28.mmh (human, UniProt P10747 19-152); assay: SPR, Biacore T-200, antibody captured by anti-human Fc, hCD28.mmh injected, 25°C
T3 construct: also called hCD28.6H; not shown: neither explained nor printed
Experimental: (§1) Different concentrations of hCD28.mmh were injected over the monoclonal antibody captured surface at a flow rate of 50 μL/minute. Association of hCD28.mmh to the captured monoclonal antibody was monitored for 5 minutes and the dissociation of hCD28.mmh in HBS-P++ running buffer was monitored for 10 minutes. Kinetic association (kₐ) and dissociation (kd) rate constants were determined by fitting the real-time sensorgrams to a 1:1 binding model using Scrubber 2.0c curve fitting software. Binding dissociation equilibrium constants (KD) and dissociative half-lives (t1/2) were calculated from the kinetic rate constants as: KD(M)=kd/kₐ, and t1/2 (min)=0.693/kd/60

[7] = biological target: T4, 6h.hPSMA (recombinant Human PSMA/FOLH1 Protein, R&D, Catalog #4234-ZN) (human, UniProt Q04609 44-750); assay: SPR, Biacore T-200, antibody captured by anti-human Fc, 6h.hPSMA injected, 25°C
T4 construct: Bought protein; also called hPSMA with an N-terminal polyhistidine tag; hPSMA.6H; not shown: N-terminal polyhistidine tag (6h)
T4 sequence (Q04609 44-750 limits assumed): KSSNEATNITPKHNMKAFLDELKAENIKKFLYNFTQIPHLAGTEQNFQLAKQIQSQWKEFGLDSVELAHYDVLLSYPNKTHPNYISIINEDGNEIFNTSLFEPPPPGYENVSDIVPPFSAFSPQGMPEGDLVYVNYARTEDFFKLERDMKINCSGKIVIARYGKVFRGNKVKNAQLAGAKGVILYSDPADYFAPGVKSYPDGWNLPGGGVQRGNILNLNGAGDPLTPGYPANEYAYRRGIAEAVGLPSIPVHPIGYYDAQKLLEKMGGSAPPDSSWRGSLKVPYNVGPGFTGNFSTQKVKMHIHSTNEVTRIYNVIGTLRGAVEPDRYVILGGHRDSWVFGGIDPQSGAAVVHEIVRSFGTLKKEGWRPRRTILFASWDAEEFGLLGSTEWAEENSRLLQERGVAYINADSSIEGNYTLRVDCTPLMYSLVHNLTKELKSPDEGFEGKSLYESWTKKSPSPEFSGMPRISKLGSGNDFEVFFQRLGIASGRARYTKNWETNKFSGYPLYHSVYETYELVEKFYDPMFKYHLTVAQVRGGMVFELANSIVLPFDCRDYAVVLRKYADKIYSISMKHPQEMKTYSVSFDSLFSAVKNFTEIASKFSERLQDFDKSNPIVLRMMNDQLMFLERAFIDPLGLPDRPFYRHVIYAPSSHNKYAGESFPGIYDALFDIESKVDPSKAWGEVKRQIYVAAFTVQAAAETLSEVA
Experimental: as §1, with “The different concentrations” for “Different concentrations”, “of 6h.hPSMA” for “of hCD28.mmh”, “for 3” for “for 5”, “fitting software (BioLogic Software).” for “fitting software.”

[8] = biological target: T4, 6h.hPSMA (recombinant Human PSMA/FOLH1 …); assay: SPR, Biacore, captured antibody, hPSMA.6H (block headed 20 nM), 37°C; 20 nM hPSMA.6H block, 37 C
[9] = biological target: T4, 6h.hPSMA (recombinant Human PSMA/FOLH1 …); assay: SPR, Biacore, captured antibody, hPSMA.6H (block headed 10 nM), 37°C
[10] = biological target: T1, CD28 on the surface of Human T cells; assay: flow cytometry, human T cells (all T cells); all T cells
[11] = biological target: T4, 6h.hPSMA (recombinant Human PSMA/FOLH1 …); assay: SPR, Biacore, captured antibody, hPSMA.6H (block headed 20 nM), 37°C
[12] = biological target: T3, hCD28.mmh; assay: SPR, Biacore, captured antibody, soluble hCD28 injected, 37°C

- EC50 [M], luciferase activity in engineered reporter T-cells with HEK293/hCD20/hPSMA, presence of TCR stimulation [1]: 4.57e-10 M
- Fold induction, luciferase activity in engineered reporter T-cells with HEK293/hCD20, absence of TCR stimulation [1]: 0.87 fold
- Fold induction, luciferase activity in engineered reporter T-cells with HEK293/hCD20, presence of TCR stimulation [1]: 0.92 fold
- Fold induction, luciferase activity in engineered reporter T-cells with HEK293/hCD20/hPSMA, absence of TCR stimulation [1]: 0.89 fold
- Fold induction, luciferase activity in engineered reporter T-cells with HEK293/hCD20/hPSMA, presence of TCR stimulation [1]: 13.6 fold
B1: BSPSMA/CD28-002 (bispecific antibody, human IgG4 S228P, kappa)
heavy 1: QVQLVESGGGVVQPGRSLRLSCAASGFTFSSYGMHWVRQAPGKGLEWVAVISYAGNNKYYADSVKGRFTVSRDNSKKTLYLQMNSLRSEDTAVYYCAKDSYYDFLTDPDVLDIWGQGTMVTVSSASTKGPSVFPLAPCSRSTSESTAALGCLVKDYFPEPVTVSWNSGALTSGVHTFPAVLQSSGLYSLSSVVTVPSSSLGTKTYTCNVDHKPSNTKVDKRVESKYGPPCPPCPAPPVAGPSVFLFPPKPKDTLMISRTPEVTCVVVDVSQEDPEVQFNWYVDGVEVHNAKTKPREEQFNSTYRVVSVLTVLHQDWLNGKEYKCKVSNKGLPSSIEKTISKAKGQPREPQVYTLPPSQEEMTKNQVSLTCLVKGFYPSDIAVEWESNGQPENNYKTTPPVLDSDGSFFLYSRLTVDKSRWQEGNVFSCSVMHEALHNHYTQKSLSLSLGK
heavy 2: EVQLVESGGGLVQPGGSLRLSCAASGFTFSTYAMTWVRQAPGKGLEWVSFISGSGDNTYYADSVKGRFTISRDNSKNTLYLQMNSLRADDSAIYHCAKDSGYCSSGGCSLYFYYGMDVWGQGTTVTVSSASTKGPSVFPLAPCSRSTSESTAALGCLVKDYFPEPVTVSWNSGALTSGVHTFPAVLQSSGLYSLSSVVTVPSSSLGTKTYTCNVDHKPSNTKVDKRVESKYGPPCPPCPAPPVAGPSVFLFPPKPKDTLMISRTPEVTCVVVDVSQEDPEVQFNWYVDGVEVHNAKTKPREEQFNSTYRVVSVLTVLHQDWLNGKEYKCKVSNKGLPSSIEKTISKAKGQPREPQVYTLPPSQEEMTKNQVSLTCLVKGFYPSDIAVEWESNGQPENNYKTTPPVLDSDGSFFLYSRLTVDKSRWQEGNVFSCSVMHEALHNRFTQKSLSLSPGK
light: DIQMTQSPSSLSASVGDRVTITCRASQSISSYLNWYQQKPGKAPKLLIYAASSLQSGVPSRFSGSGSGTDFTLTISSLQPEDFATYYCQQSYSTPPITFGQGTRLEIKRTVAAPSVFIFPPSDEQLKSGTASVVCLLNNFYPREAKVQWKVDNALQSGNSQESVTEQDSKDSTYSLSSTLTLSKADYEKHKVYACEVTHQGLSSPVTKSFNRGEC

- EC50 [2]: 180 nM
- EC50 [3]: 1.5 nM
- EC50 [4]: 167 nM
- EC50 [M], luciferase activity in engineered reporter T-cells with HEK293/hCD20/hPSMA, presence of TCR stimulation [1]: 2.78e-10 M
- Fold induction, luciferase activity in engineered reporter T-cells with HEK293/hCD20, absence of TCR stimulation [1]: 0.94 fold
- Fold induction, luciferase activity in engineered reporter T-cells with HEK293/hCD20, presence of TCR stimulation [1]: 0.95 fold
- Fold induction, luciferase activity in engineered reporter T-cells with HEK293/hCD20/hPSMA, absence of TCR stimulation [1]: 0.98 fold
- Fold induction, luciferase activity in engineered reporter T-cells with HEK293/hCD20/hPSMA, presence of TCR stimulation [1]: 24.5 fold
- EC50 [5]: 6.33 nM
- Kd [6]: 207 nM
- T½ [6]: 8.2 min
- koff [6]: 0.00141 s⁻¹
- kon [6]: 6790 M⁻¹ s⁻¹
- Kd [7]: 0.137 nM
- T½ [7]: 5.01 h
- koff [7]: 3.85e-05 s⁻¹
- kon [7]: 280000 M⁻¹ s⁻¹
B2: BSPSMA/CD28-003 (bispecific antibody, human IgG4 S228P, kappa)
heavy 1: B1 heavy 1
heavy 2: EVQLVESGGGLVQPGGSLRLSCAASGFTFSRNNMHWVRQAPGKGLEYVSGISSNGGRTYYADSVKGRFTISRDNSKNTLYLQMGGLRAADMAVYFCTRDDELLSFDYWGQGTLVTVSSASTKGPSVFPLAPCSRSTSESTAALGCLVKDYFPEPVTVSWNSGALTSGVHTFPAVLQSSGLYSLSSVVTVPSSSLGTKTYTCNVDHKPSNTKVDKRVESKYGPPCPPCPAPPVAGPSVFLFPPKPKDTLMISRTPEVTCVVVDVSQEDPEVQFNWYVDGVEVHNAKTKPREEQFNSTYRVVSVLTVLHQDWLNGKEYKCKVSNKGLPSSIEKTISKAKGQPREPQVYTLPPSQEEMTKNQVSLTCLVKGFYPSDIAVEWESNGQPENNYKTTPPVLDSDGSFFLYSRLTVDKSRWQEGNVFSCSVMHEALHNRFTQKSLSLSPGK
light: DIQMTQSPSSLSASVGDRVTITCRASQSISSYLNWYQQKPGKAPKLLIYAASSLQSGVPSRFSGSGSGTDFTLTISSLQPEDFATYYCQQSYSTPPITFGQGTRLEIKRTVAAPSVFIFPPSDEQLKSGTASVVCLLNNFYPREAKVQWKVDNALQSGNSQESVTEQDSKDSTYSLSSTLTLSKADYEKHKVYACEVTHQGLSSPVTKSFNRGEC
notes: also called anti-PSMAxCD28 bispecific antibody

- koff [8]: 6.36e-05 s⁻¹
- EC50 [2]: 58.9 nM
- Kd [9]: 0.396 nM
- koff [9]: 7.93e-05 s⁻¹
- kon [9]: 200000 M⁻¹ s⁻¹
- t½ [9]: 2.43 h
- EC50 [3]: 3.87 nM
- EC50 [4]: 50.9 nM
- EC50 [10]: 48 nM
- EC50 [M], luciferase activity in engineered reporter T-cells with HEK293/hCD20/hPSMA, presence of TCR stimulation [1]: 1.72e-10 M
- Fold induction, luciferase activity in engineered reporter T-cells with HEK293/hCD20, absence of TCR stimulation [1]: 0.81 fold
- Fold induction, luciferase activity in engineered reporter T-cells with HEK293/hCD20, presence of TCR stimulation [1]: 1 fold
- Fold induction, luciferase activity in engineered reporter T-cells with HEK293/hCD20/hPSMA, absence of TCR stimulation [1]: 1.04 fold
- Fold induction, luciferase activity in engineered reporter T-cells with HEK293/hCD20/hPSMA, presence of TCR stimulation [1]: 16.1 fold
- EC50 [5]: 3.05 nM
- Kd [11]: 0.217 nM
- kon [11]: 293000 M⁻¹ s⁻¹
- t½ [11]: 3.03 h
- Kd [12]: 272 nM
- koff [12]: 0.0067 s⁻¹
- kon [12]: 24600 M⁻¹ s⁻¹
- t½ [12]: 1.7 min
- Kd [6]: 144 nM
- T½ [6]: 3.5 min
- koff [6]: 0.00326 s⁻¹
- kon [6]: 22600 M⁻¹ s⁻¹
- Kd [7]: 0.251 nM
- T½ [7]: 3.91 h
- koff [7]: 4.92e-05 s⁻¹
- kon [7]: 196000 M⁻¹ s⁻¹
B3: BSPSMA/CD28-001 (bispecific antibody, human IgG4 S228P, kappa)
heavy 1: QVQLVESGGGVVQPGRSLRLSCAASGFTFSSYGMHWVRQAPGKGLEWVAFMSYDGSNKFYSDSVKGRFTISRDNSRKMLFLQMNNLRAEDTAVYYCARDQYYDFLTDHGVFDYWGQGTLVTVSSASTKGPSVFPLAPCSRSTSESTAALGCLVKDYFPEPVTVSWNSGALTSGVHTFPAVLQSSGLYSLSSVVTVPSSSLGTKTYTCNVDHKPSNTKVDKRVESKYGPPCPPCPAPPVAGPSVFLFPPKPKDTLMISRTPEVTCVVVDVSQEDPEVQFNWYVDGVEVHNAKTKPREEQFNSTYRVVSVLTVLHQDWLNGKEYKCKVSNKGLPSSIEKTISKAKGQPREPQVYTLPPSQEEMTKNQVSLTCLVKGFYPSDIAVEWESNGQPENNYKTTPPVLDSDGSFFLYSRLTVDKSRWQEGNVFSCSVMHEALHNHYTQKSLSLSLGK
heavy 2: QVQLQESGPGLVKPSETLSLTCTVSGGSISSYYWSWIRQPPGKGLEWIGYIYYSGITHYNPSLKSRVTISVDTSKIQFSLKLSSVTAADTAVYYCARWGVRRDYYYYGMDVWGQGTTVTVSSASTKGPSVFPLAPCSRSTSESTAALGCLVKDYFPEPVTVSWNSGALTSGVHTFPAVLQSSGLYSLSSVVTVPSSSLGTKTYTCNVDHKPSNTKVDKRVESKYGPPCPPCPAPPVAGPSVFLFPPKPKDTLMISRTPEVTCVVVDVSQEDPEVQFNWYVDGVEVHNAKTKPREEQFNSTYRVVSVLTVLHQDWLNGKEYKCKVSNKGLPSSIEKTISKAKGQPREPQVYTLPPSQEEMTKNQVSLTCLVKGFYPSDIAVEWESNGQPENNYKTTPPVLDSDGSFFLYSRLTVDKSRWQEGNVFSCSVMHEALHNRFTQKSLSLSPGK
light: not shown
notes: also called mAb1; REGN5678
